Patent US5705355A, “Hirudin, pharmaceutical compositions comprising it and their use” (Transgene, S.A., priority 1984, dated 1998)
pKd: −log10 of the molar value. Read-outs that look alike come from different tables or passages of the source.

What was measured:
thrombin [1] = target: T1, thrombin (Homo sapiens, UniProt P00734); settings: cited from earlier work
rabbits = settings: intravenously and subcutaneously; cited from earlier work
[2] = test system: plasmin, chymotrypsin A, trypsin, papain, pepsin, subtilopeptidase A; settings: cited from earlier work
[3] = in vivo; cited from earlier work
[4] = heat / acid-heat treatment (70° C., pH 2.8, 15 min), antithrombin activity afterwards; type: physicochemical
Procedure: In order to characterize the hirudin obtained from E. coli, analysis was performed directly on culture samples after induction, which were heated to 70° C. for 15 min or heated to 70° C. after reduction of the pH to 2.8 with HCl.
In the latter case, the pH of the extract was brought back to neutral before being assayed. […] This can reflect either the degradation or the inactivation of constituents of the extract which inhibited the action of hirudin, or possibly the rather low pH and the heating stage may, in some cases, provide for a more complete reforming of the disulfide bridges which are needed for hirudin to show maximum activity. […]
When the labeled materials from non-induced PTG718 cultures and from cultures at 3 and 5 hours after induction are treated at 70° C. and at pH 2.8 for 15 min, centrifuged to remove the denatured proteins and analyzed on an SDS-polyacrylamide gel, it is clear that the bulk of the labeled E. coli proteins are removed from the sample (FIG. 9-- lanes 1 and 2). […]
Another portion, is adjusted to pH 2.8 with dilute HCl, and then heated to 70° C. for 15 minutes. […] The supernatant is neutralized by adding dilute NaOH and the antithrombin activity is then measured. After the small modifications in volume due to the acidification and neutralization are taken into account, it can be calculated that 100% of the original activity survives this acid/heat treatment. […]

mice = settings: cited from earlier work
thrombin [5] = target: T1, thrombin; settings: first estimate; read-out: dissociation constant of the 1:1 thrombin-hirudin complex; cited from earlier work
DIC = settings: rat, in vivo; cited from earlier work
[6] = test system: rats, dogs, rabbits and mice; settings: in vivo, iv; cited from earlier work

Substance: hirudin
- specific activity (thrombin [1]; after further stages of purification): 10,400 U/mg
- specific activity (thrombin [1]; hirudin extracted from whole leeches): 6,500 anti-thrombin units per milligram
- specific activity (thrombin [1]; purified approximately 650 times from heads of leeches): 8,500 units per milligram
- activity relative to the initial hirudin activity (thrombin [1]; sulfate ester (Tyr 63) made to disappear completely): 55%
- tolerated dose (rabbits): up to 10 mg/kg
- hirudin activity on digestion with chymotrypsin A ([2]; chymotrypsin A): resisted
- hirudin activity on digestion with papain ([2]; papain): sensitive
- hirudin activity on digestion with pepsin ([2]; pepsin): sensitive
- hirudin activity on digestion with plasmin ([2]; plasmin): resisted
- hirudin activity on digestion with subtilopeptidase A ([2]; subtilopeptidase A): sensitive
- hirudin activity on digestion with trypsin ([2]; trypsin): resisted
- elimination [3]: rapidly eliminated
- resistance to heat treatment under conditions of quite low pH [4]: resistance to heat treatment
- loss in activity after heat or acid/heat treatment ([4]; 70° C. for 15 min, or 70° C. after reduction of the pH to 2.8): no loss in activity
- LD50 (mice): > 500,000 U/kg of body weight
- tolerated dose (mice): up to 1 g per kg
- sensitization reactions (mice; repeated injections over a period of two weeks): do not lead to sensitization reactions
- LD50 (mice; same value expressed by weight): > 60 mg/kg
- pKd (thrombin [5]): 10.10
- treating DIC compared with heparin (DIC): far superior to heparin
- tolerance [6]: well tolerated
